Laboratory results reported in patent US20090118165A1 (CASE WESTERN RESERVE UNIVERSITY, published 2009).
Where no end group is shown, it is not given here. The star is where a group is joined. Biotin = O=C1N[C@H]2[C@H](CS[C@H]2CCCCC(=O)*)N1

Biological target: T1, Bax (endogenous, in lysate of human Dami megakaryocytic cells) (human, UniProt Q07812 1-192, limits assumed)
T1 construct: Endogenous protein in a cell lysate
Experiment: pull-down of biotin-labeled peptide with streptavidin beads from Dami cell lysate, Western blot with anti-Bax antibody
Description: FIG. 1 illustrates Western Blots of Dami cell lysates incubated in the absence or presence of 200 μM biotin-labeled peptides. The peptides were: KLPVM (SEQ ID NO:8) (scrambled negative control), VPMLK (SEQ ID NO:2) (human version), VPTLK (SEQ ID NO:5) (mouse version), and VPALR (SEQ ID NO:6) (rat version). Immuno-precipitation was performed with streptavidin beads. Western blot analysis of immune precipitated samples were performed with anti-Bax polyclonal antibody.
Co-precipitation was performed as previously described (Yoshida, T., et al., Bax-inhibiting peptide derived from mouse and rat Ku70. Biochem Biophys Res Commun, 2004. 321(4): p. 961-6). […] After the precleaning of 200 μl of sample with 20 μl of streptavidin beads (Amersham-Pharmacia Biotech) at 4° C. for 1 h, the samples were incubated with 200 μM of various biotin-labeled peptides (biotin-KLPVM (SEQ ID NO:8), VPMLK (SEQ ID NO:2), VPTLK (SEQ ID NO:5) or VPALR (SEQ ID NO:6) for 2 h. Streptavidin beads (20 μl) were added to the samples and the mixtures were incubated at 4° C. After 2 h of incubation, the beads were washed with 100 μl of Chaps buffer 3 times by centrifugation (1000 rpm, at 4° C., 15 sec). The beads were boiled in 40 μl of Laemmli buffer and the eluted proteins (20 μl) were analyzed by Western blotting with anti-human Bax polyclonal antibody (BD-Pharmingen). […]

T1 sequence (Q07812 whole entry): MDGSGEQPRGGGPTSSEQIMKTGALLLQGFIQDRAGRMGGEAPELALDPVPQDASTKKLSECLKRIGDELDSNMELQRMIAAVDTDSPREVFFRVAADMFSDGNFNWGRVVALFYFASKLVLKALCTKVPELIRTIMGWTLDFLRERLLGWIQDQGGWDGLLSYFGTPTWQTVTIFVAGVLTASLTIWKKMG

B1: biotin-KLPVM (SEQ ID NO:8), scrambled negative control peptide (peptide)
peptide: Biotin-KLPVM
notes: Synthetic scrambled control peptide, biotin-labeled, used at 200 uM in Dami cell lysate
Does B1 bind?
Result: no binding (tested: 200 µM)
